{"source": "patent US20230218721A1", "about": "(ZHEJIANG DOER BIOLOGICS, published 2023)", "binders": {"B1": {"name": "glucagon derivative P5YELAN (peptide)", "peptide": "YSEGTFTSDK([AEEA-AEEA-γGlu-C18 diacid])SKYLDSQAAQDFVQWLLAGGPSSGAPPPS-NH2", "modifications": "N-terminus assumed", "SMILES": "CC(C)C[C@H](NC(=O)[C@H](CC(C)C)NC(=O)[C@H](Cc1c[nH]c2ccccc12)NC(=O)[C@H](CCC(N)=O)NC(=O)[C@@H](NC(=O)[C@H](Cc1ccccc1)NC(=O)[C@H](CC(=O)O)NC(=O)[C@H](CCC(N)=O)NC(=O)[C@H](C)NC(=O)[C@H](C)NC(=O)[C@H](CCC(N)=O)NC(=O)[C@H](CO)NC(=O)[C@H](CC(=O)O)NC(=O)[C@H](CC(C)C)NC(=O)[C@H](Cc1ccc(O)cc1)NC(=O)[C@H](CCCCN)NC(=O)[C@H](CO)NC(=O)[C@H](CCCCNC(=O)COCCOCCNC(=O)COCCOCCNC(=O)CC[C@H](NC(=O)CCCCCCCCCCCCCCCCC(=O)O)C(=O)O)NC(=O)[C@H](CC(=O)O)NC(=O)[C@H](CO)NC(=O)[C@@H](NC(=O)[C@H](Cc1ccccc1)NC(=O)[C@@H](NC(=O)CNC(=O)[C@H](CCC(=O)O)NC(=O)[C@H](CO)NC(=O)[C@@H](N)Cc1ccc(O)cc1)[C@@H](C)O)[C@@H](C)O)C(C)C)C(=O)N[C@@H](C)C(=O)NCC(=O)NCC(=O)N1CCC[C@H]1C(=O)N[C@@H](CO)C(=O)N[C@@H](CO)C(=O)NCC(=O)N[C@@H](C)C(=O)N1CCC[C@H]1C(=O)N1CCC[C@H]1C(=O)N1CCC[C@H]1C(=O)N[C@@H](CO)C(N)=O"}, "B2": {"name": "incretin analogue P3YELAN (peptide)", "peptide": "YSEGTFTSDK([γGlu-Palmitoyl])SKYLDSQAAQDFVQWLLAGGPSSGAPPPS-NH2", "modifications": "N-terminus assumed", "SMILES": "CCCCCCCCCCCCCCCC(=O)N[C@@H](CCC(=O)NCCCC[C@H](NC(=O)[C@H](CC(=O)O)NC(=O)[C@H](CO)NC(=O)[C@@H](NC(=O)[C@H](Cc1ccccc1)NC(=O)[C@@H](NC(=O)CNC(=O)[C@H](CCC(=O)O)NC(=O)[C@H](CO)NC(=O)[C@@H](N)Cc1ccc(O)cc1)[C@@H](C)O)[C@@H](C)O)C(=O)N[C@@H](CO)C(=O)N[C@@H](CCCCN)C(=O)N[C@@H](Cc1ccc(O)cc1)C(=O)N[C@@H](CC(C)C)C(=O)N[C@@H](CC(=O)O)C(=O)N[C@@H](CO)C(=O)N[C@@H](CCC(N)=O)C(=O)N[C@@H](C)C(=O)N[C@@H](C)C(=O)N[C@@H](CCC(N)=O)C(=O)N[C@@H](CC(=O)O)C(=O)N[C@@H](Cc1ccccc1)C(=O)N[C@H](C(=O)N[C@@H](CCC(N)=O)C(=O)N[C@@H](Cc1c[nH]c2ccccc12)C(=O)N[C@@H](CC(C)C)C(=O)N[C@@H](CC(C)C)C(=O)N[C@@H](C)C(=O)NCC(=O)NCC(=O)N1CCC[C@H]1C(=O)N[C@@H](CO)C(=O)N[C@@H](CO)C(=O)NCC(=O)N[C@@H](C)C(=O)N1CCC[C@H]1C(=O)N1CCC[C@H]1C(=O)N1CCC[C@H]1C(=O)N[C@@H](CO)C(N)=O)C(C)C)C(=O)O"}, "B3": {"name": "glucagon derivative P9YELAN (peptide)", "peptide": "YSEGTFTSDK([AEEA-AEEA-γGlu-C20 diacid])SKYLDSQAAQDFVQWLLAGGPSSGAPPPS-NH2", "modifications": "N-terminus assumed", "SMILES": "CC(C)C[C@H](NC(=O)[C@H](CC(C)C)NC(=O)[C@H](Cc1c[nH]c2ccccc12)NC(=O)[C@H](CCC(N)=O)NC(=O)[C@@H](NC(=O)[C@H](Cc1ccccc1)NC(=O)[C@H](CC(=O)O)NC(=O)[C@H](CCC(N)=O)NC(=O)[C@H](C)NC(=O)[C@H](C)NC(=O)[C@H](CCC(N)=O)NC(=O)[C@H](CO)NC(=O)[C@H](CC(=O)O)NC(=O)[C@H](CC(C)C)NC(=O)[C@H](Cc1ccc(O)cc1)NC(=O)[C@H](CCCCN)NC(=O)[C@H](CO)NC(=O)[C@H](CCCCNC(=O)COCCOCCNC(=O)COCCOCCNC(=O)CC[C@H](NC(=O)CCCCCCCCCCCCCCCCCCC(=O)O)C(=O)O)NC(=O)[C@H](CC(=O)O)NC(=O)[C@H](CO)NC(=O)[C@@H](NC(=O)[C@H](Cc1ccccc1)NC(=O)[C@@H](NC(=O)CNC(=O)[C@H](CCC(=O)O)NC(=O)[C@H](CO)NC(=O)[C@@H](N)Cc1ccc(O)cc1)[C@@H](C)O)[C@@H](C)O)C(C)C)C(=O)N[C@@H](C)C(=O)NCC(=O)NCC(=O)N1CCC[C@H]1C(=O)N[C@@H](CO)C(=O)N[C@@H](CO)C(=O)NCC(=O)N[C@@H](C)C(=O)N1CCC[C@H]1C(=O)N1CCC[C@H]1C(=O)N1CCC[C@H]1C(=O)N[C@@H](CO)C(N)=O"}}, "experiment_in_all_cases": "cell-based or functional assay", "key": {"[1]": {"biological_target": "glucagon receptor (GCGR) (human (printed as 'Humanized'), UniProt P47871 26-477)", "sequence (P47871 26-477)": "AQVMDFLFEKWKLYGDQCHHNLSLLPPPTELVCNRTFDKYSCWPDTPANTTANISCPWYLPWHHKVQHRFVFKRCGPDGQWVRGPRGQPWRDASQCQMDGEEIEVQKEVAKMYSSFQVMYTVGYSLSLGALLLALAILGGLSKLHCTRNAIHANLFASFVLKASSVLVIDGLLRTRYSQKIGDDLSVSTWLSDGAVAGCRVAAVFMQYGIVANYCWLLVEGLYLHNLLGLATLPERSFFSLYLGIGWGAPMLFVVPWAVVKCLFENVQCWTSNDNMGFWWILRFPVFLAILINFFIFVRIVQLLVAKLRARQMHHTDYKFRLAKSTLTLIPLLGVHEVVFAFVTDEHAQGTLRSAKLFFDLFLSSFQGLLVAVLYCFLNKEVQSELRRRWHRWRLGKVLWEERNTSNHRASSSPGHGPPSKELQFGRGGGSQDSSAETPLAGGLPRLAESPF"}, "[2]": {"biological_target": "human glucagon-like peptide-1 receptor (GLP-1R) (human (printed as 'Humanized'), UniProt P43220 24-463)"}, "[3]": {"biological_target": "T1, glucose-dependent insulinotropic polypeptide receptor (GIPR) (human (printed as 'Humanized'), UniProt P48546 22-466)", "T1 sequence (looked up)": "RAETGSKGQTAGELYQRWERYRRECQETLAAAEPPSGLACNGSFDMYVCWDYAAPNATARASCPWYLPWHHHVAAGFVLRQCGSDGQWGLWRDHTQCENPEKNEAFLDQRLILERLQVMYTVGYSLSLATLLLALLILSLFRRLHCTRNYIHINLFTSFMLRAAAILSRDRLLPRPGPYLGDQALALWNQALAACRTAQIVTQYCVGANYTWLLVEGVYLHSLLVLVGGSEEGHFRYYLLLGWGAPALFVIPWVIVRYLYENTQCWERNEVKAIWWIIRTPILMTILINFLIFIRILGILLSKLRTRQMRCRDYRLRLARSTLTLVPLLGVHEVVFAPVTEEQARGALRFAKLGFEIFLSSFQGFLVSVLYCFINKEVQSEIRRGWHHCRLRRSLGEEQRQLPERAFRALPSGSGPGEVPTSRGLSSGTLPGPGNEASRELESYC"}}, "note": "Starred links: 1 amine or outer side, 2 acyl side, 3 side chain; linkers in the order of their positions; H or OH if unused. Groups on a side chain read outwards from the residue. No end group written: not given here. *: point of attachment. C20 diacid = O=C(O)CCCCCCCCCCCCCCCCCCC(=O)*; C18 diacid = O=C(O)CCCCCCCCCCCCCCCCC(=O)*; γGlu = O=C(O)[C@H](CCC(=O)[*:2])N[*:1]; Palmitoyl = CCCCCCCCCCCCCCCC(=O)*; AEEA = NCCOCCOCC(=O)O"}
{"binder": "B1", "values": [{"measurement": "GCGR agonist activity (EC50, nM)", "setting": "[1]", "value": 5.87, "unit": "nM"}, {"measurement": "GLP-1R agonist activity (EC50, nM)", "setting": "[2]", "value": 0.81, "unit": "nM"}, {"measurement": "GIPR agonist activity (EC50, nM)", "setting": "[3]", "value": 1.56, "unit": "nM"}]}
{"binder": "B2", "values": [{"measurement": "GCGR agonist activity (EC50, nM)", "setting": "[1]", "value": 4.57, "unit": "nM"}, {"measurement": "GLP-1R agonist activity (EC50, nM)", "setting": "[2]", "value": 0.11, "unit": "nM"}, {"measurement": "GIPR agonist activity (EC50, nM)", "setting": "[3]", "value": 0.004, "unit": "nM"}]}
{"binder": "B3", "values": [{"measurement": "GCGR agonist activity (EC50, nM)", "setting": "[1]", "value": 4.77, "unit": "nM"}, {"measurement": "GLP-1R agonist activity (EC50, nM)", "setting": "[2]", "value": 4.25, "unit": "nM"}, {"measurement": "GIPR agonist activity (EC50, nM)", "setting": "[3]", "value": 0.19, "unit": "nM"}]}
